For series [1] the following is noted: published reports; cited from earlier work.
For series [2] the following is noted: DMSO; cited from earlier work.
A further series deals with hair germ. In words: subcutaneous injection of WNT activator 2 recombinant protein in mice, hair germ activation and hair cycle. It counts as in vivo. The settings on record: for hair germ activation: mice (FIG. 12); for telogen to anagen transition: mice (FIG. 13). From the text:
To further investigate the effect of WNT activator 2 in hair germ activation, mice received subcutaneous injection of WNT activator 2 recombinant protein.

In the case of `c1cc(-c2cnn3cc(-c4ccc(OCCN5CCCCC5)cc4)cnc23)ccn1` [Dorsomorphin], the toxicity entry in series [1] is given as “low toxicity”. Also, the solubility entry in series [2] is on record as “soluble in DMSO”.

B1: WNT activator 2 recombinant protein: recombinant Wnt7a protein (wingless-type MMTV integration site family, member 7A), called WNT activator 2 (protein, UniProt O00755 32-349, looked up)
Protein Wnt-7a: LGASIICNKIPGLAPRQRAICQSRPDAIIVIGEGSQMGLDECQFQFRNGRWNCSALGERTVFGKELKVGSREAAFTYAIIAAGVAHAITAACTQGNLSDCGCDKEKQGQYHRDEGWKWGGCSADIRYGIGFAKVFVDAREIKQNARTLMNLHNNEAGRKILEENMKLECKCHGVSGSCTTKTCWTTLPQFRELGYVLKDKYNEAVHVEPVRASRNKRPTFLKIKKPLSYRKPMDTDLVYIEKSPNYCEEDPVTGSVGTQGRACNKTAPQASGCDLMCCGRGYNTHQYARVWQCNCKFHWCCYVKCNTCSERTEMYTCK
With B1, in the series on hair germ, the hair germ activation result was “induces precocious hair germ activation” and the “telogen to anagen transition” value is recorded as “promotes precocious telogen to anagen transition”. Also, in the series with hair germ (listed as WNT activator 2), the hair germ activation entry is “induced precocious hair germ activation” and the “telogen to anagen transition” value is listed as “promoted precocious telogen to anagen transition”.

(Values after US20150033371A1, “HAIR FOLLICLE STEM CELLS AND METHODS OF USE SAME” (University of Southern California, priority 2011, published 2015).)
